Assays:
[1] = biological target: Leishmania braziliensis Hsp90 (LbHsp90) (Leishmania braziliensis)
[2] = biological target: Leishmania braziliensis Hsp90 (LbHsp90) (Leishmania braziliensis); test: ITC; LbAha1 (130–150 µM) injected into LbHsp90 (around 5.5 µM, as dimers); 40 mM HEPES pH 7.5, 5 mM KCl; 20°C; One Set of Sites fit; apparent enthalpy

Which results are given for “Leishmania braziliensis Activator of Hsp90 ATPase 1 (LbAha1) (natural protein)”?
stimulation of LbHsp90 ATPase activity (1 µM dimer, 0.5 mM ATP, 37°C) by increasing LbAha1 (0–20 µM in the methods, 0–16 µM in the legend); relative ATPase activity [1]: 10 fold; Kd [2]: 1000 nM; dH [2]: -18 kcal/mol; stoichiometry N (LbAha1 per LbHsp90 dimer) [2]: 2

Source: PMC3691308
